Experimental findings from patent US20210070843A1 are described below.

B1: P47 (antibody, V domains shown)
VH: EVQLVESGGGLVQPGGSLRLSCAASGFTIGNSGIHWVRQAPGKGLEWVASIWPSGGSTYYADSVKGRFTISADTSKNTAYLQMNSLRAEDTAVYYCARFGHIDGDIMDYWGQGTLVTVSS
VL: DIQMTQSPSSLSASVGDRVTITCRASQDVYYYVAWYQQKPGKAPKLLISGSSYLYSGVPSRFSGSGSGTDFTLTISSLQPEDFATYYCQQYYNWPLTFGQGTKVEIKR
B2: P10 (antibody, V domains shown)
VH: B1 VH with G30D, G33W, S54F, S57Y, H101N, I102V, D103F, G104D, D105W, I106Y
VL: DIQMTQSPSSLSASVGDRVTITCRASQDVNSNVAWYQQKPGKAPKLLIYWAGYLYSGVPSRFSGSGSGTDFTLTISSLQPEDFATYYCQQSSDFPITFGQGTKVEIKR
B3: S40 (antibody, V domains shown)
VH: B1 VH with N31D, S32F, S50G, S54F, S57Y, G100V, H101N, I102W, I106Y
VL: B1 VL with Y30G, Y31F, G50W, W94Y
B4: S51 (antibody, V domains shown)
VH: EVQLVESGGGLVQPGGSLRLSCAASGFTIDDWGIHWVRQAPGKGLEWVAWIWPYGGFTSYADSVKGRFTISADTSKNTAYLQMNSLRAEDTAVYYCARFGFVDWNLMDYWGQGTLVTVSS
VL: B1 VL with Y30W, Y31G, G50Y, S51T, S52T, W94S, L96V
B5: P25 (antibody, V domains shown)
VH: EVQLVESGGGLVQPGGSLRLSCAASGFTISNGGIHWVRQAPGKGLEWVAGIGPYGGYTYYADSVKGRFTISADTSKNTAYLQTNSLRAEDTAVYYCARFYGYSGIMDYWGQGTLVTVSS
VL: B1 VL with Y30W, Y31G, S52R, Y53S, W94Y, L96I
B6: P48 (antibody, V domains shown)
VH: EVQLVESGGGLVQPGGSLRLSCAASGFTINSWGIHWVRQAPGKGLEWVAGIGPSWGYTSYADSVKGRFTISADTSKNTAYLQMNSLRAEDTAVYYCARFGDGDFDLMDYWGQGTLVTVSS
VL: B1 VL with Y30W, Y31S, G50Y, S51T, Y92F, L96I
B7: P14 (antibody, V domains shown)
VH: B1 VH with N31D, S32F, S50G, S54F, S57Y, G100V, H101N, I102W, I106Y
VL: B1 VL with Y30G, Y31F, G50W, W94Y
B8: P28 (antibody, V domains shown)
VH: EVQLVESGGGLVQPGGSLRLSCAASGFTINNSGIHWVRQAPGKGLEWVASIWPSGGYTYYADSVKGRFTISADTSKNTAYLQMNSLRAEDTAVYYCARFNSSYSSGLMDYWGQGTLVTVSS
VL: B1 VL with Y30W, Y32S, S49Y, G50F, S51A, S52T, Y53G, Y92F, L96V
B9: S01 (antibody, V domains shown)
VH: B1 VH with G30N, S32Y, S57Y, Y59S, H101L, I102G, G104Y
VL: B1 VL with Y30W, Y31G, G50F, S51P, Y53S, N93D, W94G, L96V
B10: P38 (antibody, V domains shown)
VH: EVQLVESGGGLVQPGGSLRLSCAASGFTINDGGIHWVRQAPGKGLEWVAFIGPYGGSTFYADSVKGRFTISADTSKNTAYLQMNSLRAEDTAVYYCAGFIGDYSSYHGVMDYWGQGTLVTVSS
VL: B2 VL with N30W, S31G, N32Y, Y49S, A51P, Y53G, S91Y, D93S, I96L
B11: S07 (antibody, V domains shown)
VH: B6 VH with W32S, G50S, Y57S, S59Y, D101I, F104I, L106V
VL: B1 VL with Y30W, Y31G, G50Y, S51A, Y53F, Y92F, L96V
B12: C05 (antibody, V domains shown)
VH: PVQLQESGGGLVQPGESLRLSCVGSGSSFGESTLSYYAVSWVRQAPGKGLEWLSIINAGGGDIDYADSVEGRFTISRDNSKETLYLQMTNLRVEDTGVYYCAKHMSMQQVVSAGWERADLVGDAFDVWGQGTMVTVSS
VL: DIQLTQSPSSLSASVGDRVTLTCQASQDIRKFLNWYQQKPGKGPKLLIYDASNLQRGVPSRFSGGGSGTDFTLIISSLQPEDVGTYYCQQYDGLPFTFGGGTKVEIKR

Substitutions are numbered along the chain they refer to. Bounds are passed on as bounds.

As a reminder, the EC50 is the concentration needed to bring the measured effect to its halfway point. Low readings indicate greater potency, high ones weaker potency.

In the first assay the target is full-length H5 A/Vietnam/1203/2004 HA expressed on 293T cells (influenza A virus A/Vietnam/1203/2004 (H5N1)). Kind of assay: flow cytometry, HA-expressing 293T. On the technique in general: Flow cytometry measures light scatter and fluorescence of single cells or particles in a stream.
In turn, B1 had a max. MFI of 396 MFI.
Consider B2, for which the max. MFI came to 517 MFI.
B3 gave an EC50 of 2.85 µg/mL and a max. MFI of 724 MFI.
As for B4, the max. MFI is 452 MFI.
On the same count and under the same terms, as for B5, the figure is 318 MFI; as for B6, 474 MFI; as for B7, 328 MFI.
In turn, B8 showed a max. MFI of 193 MFI.
Turning to B9, the max. MFI amounted to 306 MFI.
The molecule B10 registered a max. MFI of 240 MFI.
Regarding B11, the EC50 came to 4.98 µg/mL and the max. MFI turned out to be 863 MFI.
B12 displayed a max. MFI of 547 MFI.

In a further assay the target is cell surface-expressed H3N2 WN/05 HA trimer (influenza A virus A/Wisconsin/67/2005 (H3N2)). As to the kind of experiment: flow cytometry, HA-expressing 293T.
Molecule B1 had a max. MFI of 175 MFI.
For B2, the max. MFI is 117 MFI.
Still for that read-out and setting: as for B3, the figure is 109 MFI; as for B4, 340 MFI; as for B5, 152 MFI.
Regarding B6, the max. MFI worked out at 258 MFI.
With B7, the max. MFI came out at 154 MFI.
Molecule B8 displayed a max. MFI of 127 MFI.
For B9, the max. MFI turned out to be 178 MFI.
Molecule B10 displayed a max. MFI of 137 MFI.
For the molecule B11, the EC50 was 3.71 µg/mL and the max. MFI was 410 MFI.
Turning to B12, the EC50 was found to be 0.13 µg/mL and the max. MFI came out at 14600 MFI.

The target in a further assay is full-length H1 A/California/07/2009 HA expressed on 293T cells (influenza A virus A/California/07/2009 (H1N1)). Kind of assay: flow cytometry, HA-expressing 293T.
B1 yielded a half-maximal effective concentration (EC50) of 0.61 µg/mL and a max. MFI of 10200 MFI.
For B2, in that order: 0.41 µg/mL and 9660 MFI.
For B3, the EC50 was 0.46 µg/mL and the max. MFI was 8630 MFI.
B4 yielded an EC50 of 0.754 µg/mL and a max. MFI of 6290 MFI.
As for B5, the concentration giving a half-maximal response (EC50) turned out to be 0.761 µg/mL and the max. MFI was 2380 MFI.
Consider B6, for which the concentration for a half-maximal effect (EC50) turned out to be 2.4 µg/mL and the max. MFI is 7860 MFI.
For B7, in that order: 0.125 µg/mL and 8340 MFI.
The molecule B8 returned a max. MFI of 168 MFI.
B9 registered an EC50 of 0.384 µg/mL and a max. MFI of 8430 MFI.
Take B10: the EC50 is 3.16 µg/mL and the max. MFI is 988 MFI.
Regarding B11, the EC50 came to 1.61 µg/mL and the max. MFI was 10800 MFI.
Regarding B12, the max. MFI came to 86 MFI.

Another assay concerns the target full-length H5 A/Vietnam/1203/2004 HA expressed on 293T cells (influenza A virus A/Vietnam/1203/2004 (H5N1)). As to the kind of experiment: cell-based or functional assay.
In turn, B1 returned an IC50 of pseudo virus neutralization H5N1 VN/04 of more than 200 µg/mL.
Molecule B2 gave an IC50 of pseudo virus neutralization H5N1 VN/04 of more than 200 µg/mL.
The molecule B3 returned an IC50 of pseudo virus neutralization H5N1 VN/04 of more than 200 µg/mL.
For the molecule B4, the IC50 of pseudo virus neutralization H5N1 VN/04 was more than 200 µg/mL.
Still for that read-out and setting: the result for B5 reads more than 200 µg/mL; that for B6, more than 200 µg/mL.
Take B7: the IC50 of pseudo virus neutralization H5N1 VN/04 is more than 200 µg/mL.
B8: the IC50 of pseudo virus neutralization H5N1 VN/04 is more than 200 µg/mL.
Still for that read-out and setting: as for B9, the figure is more than 200 µg/mL.
For B10, the IC50 of pseudo virus neutralization H5N1 VN/04 was more than 200 µg/mL.
Molecule B11 showed an IC50 of pseudo virus neutralization H5N1 VN/04 of more than 200 µg/mL.
The molecule B12 yielded an IC50 of pseudo virus neutralization H5N1 VN/04 of more than 200 µg/mL.

For the next assay, the target named is cell surface-expressed H3N2 WN/05 HA trimer (influenza A virus A/Wisconsin/67/2005 (H3N2)). As to the kind of experiment: cell-based or functional assay.
B1: the IC50 of pseudo virus neutralization H3N2 WN/05 is more than 20 µg/mL.
B2: the IC50 of pseudo virus neutralization H3N2 WN/05 is more than 20 µg/mL.
On to B3, for which the IC50 of pseudo virus neutralization H3N2 WN/05 is more than 20 µg/mL.
Regarding B4, the IC50 of pseudo virus neutralization H3N2 WN/05 is more than 20 µg/mL.
Molecule B5 came in with an IC50 of pseudo virus neutralization H3N2 WN/05 of more than 20 µg/mL.
In turn, B6 showed an IC50 of pseudo virus neutralization H3N2 WN/05 of more than 20 µg/mL.
On the same count and under the same terms, as for B7, the figure is more than 20 µg/mL; as for B8, more than 20 µg/mL; as for B9, more than 20 µg/mL.
Molecule B10 had an IC50 of pseudo virus neutralization H3N2 WN/05 of more than 20 µg/mL.
As for B11, the IC50 of pseudo virus neutralization H3N2 WN/05 is more than 20 µg/mL.
Turning to B12, the IC50 of pseudo virus neutralization H3N2 WN/05 came out at 0.0102 µg/mL.

In the next assay the target is H7 A/Anhui/1-BALF_RG17/2013 HA on H7N9 AH/13 pseudo virus (influenza A virus A/Anhui/1-BALF_RG17/2013 (H7N9)). Kind of assay: cell-based or functional assay.
Molecule B1 returned an IC50 of pseudo virus neutralization H7N9 AH/13 of more than 200 µg/mL.
Consider B2, for which the IC50 of pseudo virus neutralization H7N9 AH/13 is more than 200 µg/mL.
B3 gave an IC50 of pseudo virus neutralization H7N9 AH/13 of more than 200 µg/mL.
As to B4, the IC50 of pseudo virus neutralization H7N9 AH/13 is more than 200 µg/mL.
As for B5, the IC50 of pseudo virus neutralization H7N9 AH/13 is more than 200 µg/mL.
For B6, the IC50 of pseudo virus neutralization H7N9 AH/13 was more than 200 µg/mL.
On to B7, for which the IC50 of pseudo virus neutralization H7N9 AH/13 was more than 200 µg/mL.
Still for that read-out and setting: as for B8, the figure is more than 200 µg/mL.
Regarding B9, the IC50 of pseudo virus neutralization H7N9 AH/13 is more than 200 µg/mL.
The molecule B10 registered an IC50 of pseudo virus neutralization H7N9 AH/13 of more than 200 µg/mL.
Still for that read-out and setting: the result for B11 reads more than 200 µg/mL; that for B12, more than 200 µg/mL.

A further assay has as its target full-length H1 A/California/07/2009 HA expressed on 293T cells (influenza A virus A/California/07/2009 (H1N1)). Kind of assay: cell-based or functional assay.
Take B1: the IC50 of pseudo virus neutralization H1N1 CA/09 is more than 100 µg/mL and the IC50 of true virus neutralization H1N1 CA/09 is more than 500 µg/mL.
For B2, in that order: 0.465 µg/mL and more than 500 µg/mL.
For B3, in that order: more than 100 µg/mL and 436 µg/mL.
In turn, B4 yielded an IC50 of pseudo virus neutralization H1N1 CA/09 of more than 100 µg/mL and an IC50 of true virus neutralization H1N1 CA/09 of more than 500 µg/mL.
Molecule B5 registered an IC50 of pseudo virus neutralization H1N1 CA/09 of more than 100 µg/mL and an IC50 of true virus neutralization H1N1 CA/09 of more than 500 µg/mL.
Consider B6, for which the IC50 of pseudo virus neutralization H1N1 CA/09 is more than 100 µg/mL and the IC50 of true virus neutralization H1N1 CA/09 was more than 500 µg/mL.
The molecule B7 showed an IC50 of pseudo virus neutralization H1N1 CA/09 of more than 100 µg/mL and an IC50 of true virus neutralization H1N1 CA/09 of 4390 µg/mL.
In turn, B8 registered an IC50 of pseudo virus neutralization H1N1 CA/09 of more than 100 µg/mL and an IC50 of true virus neutralization H1N1 CA/09 of more than 500 µg/mL.
Turning to B9, the IC50 of pseudo virus neutralization H1N1 CA/09 is more than 100 µg/mL and the IC50 of true virus neutralization H1N1 CA/09 is more than 500 µg/mL.
Regarding B10, the IC50 of pseudo virus neutralization H1N1 CA/09 is more than 100 µg/mL and the IC50 of true virus neutralization H1N1 CA/09 is more than 500 µg/mL.
As to B11, the IC50 of pseudo virus neutralization H1N1 CA/09 was more than 100 µg/mL and the IC50 of true virus neutralization H1N1 CA/09 was more than 500 µg/mL.
For B12, the IC50 of pseudo virus neutralization H1N1 CA/09 was more than 100 µg/mL and the IC50 of true virus neutralization H1N1 CA/09 is more than 500 µg/mL.
